Data: patent publication US20250382376A1 (FUDAN UNIVERSITY, published 2025)

T1: CD73 on the surface of human cells (human, UniProt P21589 27-549)
T1 construct: whole, on cells; The cell line of each value is named under assay or readout; also called CD73 on the surface of tumor cells; CD73 enzyme on the surface of MDA-MB-231 cells
T1 sequence (looked up): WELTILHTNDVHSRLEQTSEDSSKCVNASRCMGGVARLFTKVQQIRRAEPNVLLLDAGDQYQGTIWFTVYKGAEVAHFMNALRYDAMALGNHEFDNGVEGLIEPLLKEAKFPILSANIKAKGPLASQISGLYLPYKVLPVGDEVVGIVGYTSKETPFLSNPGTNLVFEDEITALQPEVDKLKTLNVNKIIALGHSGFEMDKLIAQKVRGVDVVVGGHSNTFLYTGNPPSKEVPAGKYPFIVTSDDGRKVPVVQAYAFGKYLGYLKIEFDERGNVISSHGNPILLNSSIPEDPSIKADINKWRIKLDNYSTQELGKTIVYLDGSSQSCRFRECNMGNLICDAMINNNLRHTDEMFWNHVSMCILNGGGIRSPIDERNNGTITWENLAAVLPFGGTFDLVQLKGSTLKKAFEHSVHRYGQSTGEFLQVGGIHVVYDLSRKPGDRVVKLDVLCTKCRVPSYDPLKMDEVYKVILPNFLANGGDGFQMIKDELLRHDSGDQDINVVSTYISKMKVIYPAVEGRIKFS

T2: extracellular domain of human CD73 protein, C-terminus polyhistidine-tagged (human, UniProt P21589 27-547)
T2 construct: also the immunogen; also called CD73-ECD; human CD73-ECD
T2 sequence: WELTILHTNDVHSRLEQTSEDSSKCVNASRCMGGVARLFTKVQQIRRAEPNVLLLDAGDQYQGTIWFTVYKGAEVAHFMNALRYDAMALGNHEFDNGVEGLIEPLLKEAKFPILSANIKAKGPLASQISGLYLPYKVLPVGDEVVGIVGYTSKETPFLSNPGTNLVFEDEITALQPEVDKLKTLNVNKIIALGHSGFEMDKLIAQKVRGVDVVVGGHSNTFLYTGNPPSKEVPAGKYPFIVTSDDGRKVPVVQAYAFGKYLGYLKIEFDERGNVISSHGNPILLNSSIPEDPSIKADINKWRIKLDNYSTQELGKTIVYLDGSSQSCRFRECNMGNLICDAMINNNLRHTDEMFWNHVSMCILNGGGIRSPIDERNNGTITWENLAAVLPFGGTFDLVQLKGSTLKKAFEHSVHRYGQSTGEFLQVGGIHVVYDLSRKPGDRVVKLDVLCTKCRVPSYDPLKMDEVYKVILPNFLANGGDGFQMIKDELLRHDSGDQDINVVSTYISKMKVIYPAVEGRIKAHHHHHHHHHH

B1: chimeric nanobody 5-E11 (Fc fusion)
VHH: ALQLVESGGGLVQPGGSLRLSCEVSGFTLDYYNIGWFRQAPGKEREGVSCSSNSGGSTYYADSVKGRFTISRDNAKNTVYLQMNSLKPEDTGVYYCAAYRGWHPSLDARVYDYWGQGTEVTVSS
notes: Human-alpaca chimeric antibody (VHH on hIgG1 Fc); Only the VHH is tied to the tested molecule; also called original antibody 5-E11
B2: chimeric nanobody 4-B02 (Fc fusion)
VHH: EVQLVESGGGLVQPGGSLRLSCAASGFPLDYYSIGWFRQAPGKEREGVSCIGSSDGSTYYADSVKGRFTISRDNAENTVWLQMNSLKPEDTAVYYCAALKYYYCSGHEAIYDYWGQGTQVTVSG
notes: Human-alpaca chimeric antibody
B3: chimeric nanobody 4-D04 (Fc fusion)
VHH: QLQLVESGGGLVQPGGSLRLSCAASGFTLDYYNIGWFRQAPGKEREGVSCISSSEGSTYYADSVKGRFTISRDNAKNTVYLQMNSLKPEDTAVYYCAADRYYYCSLHVSQYDYWGQGTLVTVSS
notes: as for B2
B4: chimeric nanobody 3-D7 (Fc fusion)
VHH: QRQLVESGGGLVQPGGSLRLSCAASGFLLDYYVIGWFRQAPGKEREGVSCISGSDRSTYYADSVKGRFTISRDNAKNTVYLQMNSLKPEDTAVYFCAADPSPVTVQAMCLPRFPVPYWGQGTQVTVST
notes: Human-alpaca chimeric antibody (VHH on hIgG1 Fc); Only the VHH is tied to the tested molecule; 37-39 exist for 3-D7-FC1/FC2/FC3; also called original antibody 3-D7

Biological target: T1, CD73 on the surface of human cells
Assay: flow cytometry on NCI-H1299 cells

B1 and B2 are within 1.5-fold of each other in EC50: 0.068 µg/mL for the first, 0.078 µg/mL for the second.

For B3, the EC50 was 0.08 µg/mL.

Biological target: T1, CD73 on the surface of human cells
Assay: Flow cytometry on NCI-H1299 cells, PE-labelled secondary antibody [panel B]
Experimental: (§1) 100 μL of the test antibodies diluted from 10 μg/mL to 0.016 μg/mL in a 5-fold gradient were used as the primary antibodies, and were mixed with 1×10⁵ tumor cells suspended in 100 μL RPMI-1640 serum-free medium to make a final concentration of 5 μg/mL diluted to 0.008 μg/mL, and then incubated at 4° C. for 1 h. The cells were washed twice with PBS to remove unbound primary antibodies, and then the target cells were incubated with 200 μLPE-labeled secondary antibody at 2 μg/mL at 4° C. for 30 min. The cells were washed twice with PBS to remove unbound secondary antibodies, and finally the cells were resuspended in 200 μL PBS. The binding affinity of the test antibodies to CD73 on the surface of the corresponding cells was measured by flow cytometry.

Going from B1 to B2, the “Max MFI” value rises from 157000 MFI to 170000 MFI.

Going from B3 to B4, the “Max MFI” value falls from 168000 MFI to 155000 MFI.

Biological target: T1, CD73 on the surface of human cells
Assay: Flow cytometry on NCI-H1975 cells, PE-labelled secondary antibody [panel B]
Experimental: as §1

Going from B1 to B2, the “Max MFI” value rises from 79700 MFI to 82700 MFI.

First: B3
Second: B4
The “Max MFI” value of the first is higher: 86100 MFI for the first, 80900 MFI for the second.

Biological target: T1, CD73 on the surface of human cells
Assay: flow cytometry on NCI-H1373 cells
Experimental: as §1

B1 and B2 are within 1.5-fold of each other in EC50: 0.135 µg/mL for the first, 0.112 µg/mL for the second.

B3 and B4 are within 1.5-fold of each other in EC50: 0.163 µg/mL for the first, 0.227 µg/mL for the second.

Biological target: T1, CD73 on the surface of human cells
Assay: flow cytometry on MDA-MB-231 cells
Experimental: as §1

B1 and B2 are the same in EC50: 0.037 µg/mL for the first, 0.037 µg/mL for the second.

Going from B3 to B4, the EC50 rises from 0.059 µg/mL to 0.12 µg/mL (2-fold).

Biological target: T2, extracellular domain of human CD73 …
Assay: ELISA on CD73-ECD, 20 µL supernatant of antibody expression, first of two readings; PBS 0.19, 0.18
Experimental: The CD73 protein extracellular region (CD73-ECD) was diluted to 1 μg/mL using the coating solution, and an ELISA plate was coated at 100 μL/well at 4° C. overnight. Excess antigens were washed away, and the plate was blocked with 1% BSA at room temperature for 2 hours. Then, 5-fold gradient dilutions of each monoclonal antibody were added at 100 μL/well and incubated at room temperature for 1 hour. Unbound antibodies were washed away, and an appropriate concentration of Staphylococcal protein A labeled with horseradish peroxidase was added at 100 μL/well and incubated at room temperature for 0.5 hours. Unbound secondary antibodies were washed away, and TMB color development solution was added to react for about 15 minutes. 1M HCL was added at 50 µL/well to terminate the color development reaction, and then the absorbance was measured at 450 nm and the data was analyzed.
CD73 antigen ELISA binding affinity test was performed according to the method of Example 3.

B1 was tested, and the “ELISA reading (not named on the sheet)” value was 4.19.

Biological target: T2, extracellular domain of human CD73 …
Assay: ForteBio OCTET R2 (the filing calls it SPR); antibody on Protein A sensor, CD73-ECD in solution; traces labelled 100, 50, 25, 12.5, 6.25
Experimental: (§2) Surface plasmon resonance (SPR) assay: Protein A sensor was used to immobilize the antibodies, with an immobilization height of about 1.5 nM. […] Affinity detection: equilibrium for 60 s, binding for 180 s, dissociation for 180 s, at a detection temperature of 25° C. Kinetic characterization analysis was performed using the ForteBio OCTET R2 system.

Compared with B1, B2 is 1.5-fold lower in koff: 0.000318 s⁻¹ for the first, 0.000209 s⁻¹ for the second.

Going from B3 to B4, the koff rises from 0.000277 s⁻¹ to 0.000445 s⁻¹ (1.6-fold).

B1 and B2 are within 1.5-fold of each other in kon: 385000 M⁻¹ s⁻¹ for the first, 263000 M⁻¹ s⁻¹ for the second.

B3 and B4 are within 1.5-fold of each other in kon: 301000 M⁻¹ s⁻¹ for the first, 223000 M⁻¹ s⁻¹ for the second.

Biological target: T2, extracellular domain of human CD73 …
Assay: SPR as the filing names it (ForteBio OCTET R2); antibody on Protein A sensor, CD73-ECD in solution, 25 C
Experimental: as §2

B1 and B2 are within 1.5-fold of each other in Kd: 0.826 nM for the first, 0.795 nM for the second.

First: B3
Second: B4
The Kd of the first is 2.2-fold lower: 0.919 nM for the first, 2 nM for the second.

Biological target: T1, CD73 on the surface of human cells
Assay: Flow cytometry on MDA-MB-231 cells, PE-labelled secondary antibody [panel A]
Experimental: as §1

Compared with B1, B2 is higher in “Max MFI” value: 64500 MFI for the first, 69500 MFI for the second.

Compared with B3, B4 is lower in “Max MFI” value: 79300 MFI for the first, 69600 MFI for the second.

Biological target: T1, CD73 on the surface of human cells
Assay: flow cytometry on PC9 cells
Experimental: as §1

B1 and B2 are within 1.5-fold of each other in EC50: 0.041 µg/mL for the first, 0.044 µg/mL for the second.

First: B3
Second: B4
The EC50 of the first is 2.3-fold lower: 0.057 µg/mL for the first, 0.133 µg/mL for the second.
